As usually defined, the IC50 is the point on the concentration scale where inhibition reaches its midpoint. Lower therefore signals greater potency. In general, Kd refers to the free concentration of one partner at which half of the binding sites on the other are occupied at equilibrium, for simple one-to-one binding. A low value points to higher affinity. The koff is the first-order rate constant of dissociation. Broadly, the kon is a measure of how fast the partners come together. Lower therefore signals slow association.

The target of assay [1] is T1, human EphA4 extracellular region-SEAP-His protein (human, UniProt P54764 20-547).
T1 construct: also called hEphA4-SEAP-His
T1 sequence (P54764 20-547): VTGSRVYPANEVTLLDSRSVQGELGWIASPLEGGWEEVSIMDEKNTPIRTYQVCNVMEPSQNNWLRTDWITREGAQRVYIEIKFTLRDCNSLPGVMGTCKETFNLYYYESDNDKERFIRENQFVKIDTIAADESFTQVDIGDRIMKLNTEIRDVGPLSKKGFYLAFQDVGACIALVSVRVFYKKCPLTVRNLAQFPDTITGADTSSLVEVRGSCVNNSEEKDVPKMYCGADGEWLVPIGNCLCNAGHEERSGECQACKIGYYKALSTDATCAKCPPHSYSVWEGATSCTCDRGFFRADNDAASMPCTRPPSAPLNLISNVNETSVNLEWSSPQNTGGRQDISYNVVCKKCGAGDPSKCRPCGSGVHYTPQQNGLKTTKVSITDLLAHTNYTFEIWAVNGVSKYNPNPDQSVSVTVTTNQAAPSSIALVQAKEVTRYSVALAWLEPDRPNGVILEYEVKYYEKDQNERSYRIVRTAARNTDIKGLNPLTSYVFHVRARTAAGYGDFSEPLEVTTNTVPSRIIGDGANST
Briefly: competition ELISA, competitor human Ephrin A5-Fc. As for the experimental part: Each anti-EphA4 monoclonal humanized antibody obtained in Example 16 was evaluated for its inhibitory activity against the binding between human EphA4 and its human ligand according to the following steps. Each well of a 96-well plate (Nunc) was coated with an anti-alkaline phosphatase antibody (Thermo Fisher Scientific). After incubation overnight at 4° C., each well was blocked with 1% BlockAce (DS Pharma Biomedical) at room temperature for 1 hour. After washing with 0.05% Tween 20/PBS (Thermo Fisher Scientific) three times, the human EphA4 extracellular region-SEAP-His protein obtained by the method of Example 2 was added (final concentration: 10 nM) to each well and incubated at room temperature for 1 hour. After washing three times, a ligand and each serially diluted humanized antibody of antibody A (0, 0.003, 0.01, 0.03, 0.1, 0.3, 1, 3, 10, 30, 100, 300, 1000, and 3000 nM) were added to each well. The ligand used was biotinylated human Ephrin A5-Fc chimera (R&D Systems, final concentration: 0.7 nM). After incubation at room temperature for 1 hour and subsequent washing three times, horseradish peroxidase-labeled streptavidin (GE Healthcare) was added thereto and incubated at room temperature for 1 hour. After washing three times, a TMBZ (3,3′,5,5′-tetramethylbenzidine, Sigma-Aldrich) solution was added to each well and incubated at room temperature for 2 minutes. An equal amount of a reaction stopping solution (1N H₂SO₄, Wako Pure Chemical Industries) was added to each well. The absorbance at 450 nm was read using a microplate reader (PerkinElmer).

Assay [2] deals with T1, human EphA4 extracellular …. Briefly: SPR, Ab captured. The method, then: The binding affinity of each anti-EphA4 monoclonal humanized antibody obtained in Example 16 for human EphA4 was determined by surface plasmon resonance (SPR) using Biacore T200 (GE Healthcare). First, for the assay of antibody A, a rat anti-mouse IgG₁ antibody produced with a conventional method by immunizing rat with mouse IgG₁ antibody was immobilized on sensor chip CM5. The immobilization of the rat anti-mouse IgG1 antibody on sensor chip CM5 was performed by the amine coupling method using N-hydroxysuccinimide (NHS) and N-ethyl-N′-(3-dimethylaminopropyl)carbodiimide hydrochloride (EDC). Ethanolamine was used in blocking (the sensor chip and the reagents for immobilization were all manufactured by GE Healthcare). The antibody was diluted with a buffer solution for immobilization (10 mM sodium acetate, pH 4.5) and immobilized on the sensor chip according to the protocol attached to Biacore T200. For the assay of each humanized monoclonal antibody, a protein A chip (GE Healthcare, 29-1383-03) was used. Antibody A or the humanized monoclonal antibody was diluted with a running buffer solution HBS-EP (GE Healthcare), injected onto only flow cell 2 for 120 seconds, and captured (captured amount: approximately 30 to 60 RU). Subsequently, human EphA4 extracellular region-SEAP-His protein serially diluted in the range of 50, 16.7, 5.6, 1.9, and 0.6 nM using HBS-EP was sequentially added from the lower toward higher concentration sides without regeneration operation. Binding reaction curves were sequentially observed at the time of the addition (association phase, for 120 sec) and after the completion of the addition (dissociation phase, for 900 sec). After the completion of each observation, the sensor chip was regenerated by the addition of 3 M MgCl₂ (for 60 sec) or 10 mM Glycine-HCl pH 1.5 (for 30 sec). The obtained binding reaction curves were subjected to fitting analysis with 1:1 binding models using software BIA evaluation attached to the system to calculate the affinity (KD=kd/ka) for human EphA4 (Table 6).
(SPR reads the build-up and loss of mass on a sensor chip optically.)

Assay [3] has as its target T2, human EphB1 extracellular region-SEAP-His protein (human, UniProt P54762 18-540).
T2 construct: extracellular domain; also called hEphB1-SEAP-His
T2 sequence (looked up): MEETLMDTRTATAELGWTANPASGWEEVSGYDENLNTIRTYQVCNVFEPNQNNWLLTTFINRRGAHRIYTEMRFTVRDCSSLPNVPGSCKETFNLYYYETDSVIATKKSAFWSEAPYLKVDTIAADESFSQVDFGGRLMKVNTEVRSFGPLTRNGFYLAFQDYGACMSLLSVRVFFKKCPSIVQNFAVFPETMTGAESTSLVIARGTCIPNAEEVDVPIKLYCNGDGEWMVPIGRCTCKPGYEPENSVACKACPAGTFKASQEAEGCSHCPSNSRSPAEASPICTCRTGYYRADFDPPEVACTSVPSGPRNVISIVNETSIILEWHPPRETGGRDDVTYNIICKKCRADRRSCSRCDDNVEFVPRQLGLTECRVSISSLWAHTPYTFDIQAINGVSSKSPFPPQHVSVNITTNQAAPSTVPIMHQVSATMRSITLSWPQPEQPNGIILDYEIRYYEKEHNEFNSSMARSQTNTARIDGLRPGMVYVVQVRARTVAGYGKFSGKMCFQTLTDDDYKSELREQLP
Put plainly: ELISA. As for the experimental part: Each well of a 96-well plate (Nunc) was coated with a rabbit anti-6-His antibody (Bethyl Laboratories). Each well was […] After washing with 0.05% Tween 20/PBS (Nacalai Tesque) three times, the SEAP-His protein of human EphA1, EphA2, EphA3, EphA4, EphA5, EphA6, EphA7, EphA8, EphA10, EphB1, EphB2, EphB3, EphB4, or EphB6 was added (final concentration: 1 nM) to each well and incubated at room temperature for 1 hour. After washing three times, the humanized antibody was added to each well and incubated at room temperature for 1 hour. After washing three times, a horseradish peroxidase-labeled donkey […] antibody (Jackson ImmunoResearch Laboratories) was added thereto and incubated at room temperature for 1 hour. After washing three times, TMB Microwell Peroxidase Substrate System (Kirkegaard & Perry Laboratories (KPL)) was added to each well. After confirmation of moderate color development, an equal amount of a reaction stopping solution (1N H₂SO₄, Wako Pure Chemical Industries) was added to each well. The absorbance at 450 nm was read using a microplate reader (Thermo Fisher Scientific).
Background: An ELISA detects its analyte on a solid surface through an enzyme-linked reagent.

B1: humanized antibody No. 87 (antibody, human IgG1, kappa)
heavy: QVQLVQSGSELKKPGASVKVSCKASGYTFTDYSMHWVRQAPGQGLEWMGWINTETGEPTYAQGFTGRFVFSLDTSVSTAYLQISSLKAEDTAVYYCARIPLYYYGSRYWYFDVWGQGTTVTVSSASTKGPSVFPLAPSSKSTSGGTAALGCLVKDYFPEPVTVSWNSGALTSGVHTFPAVLQSSGLYSLSSVVTVPSSSLGTQTYICNVNHKPSNTKVDKRVEPKSCDKTHTCPPCPAPPAAAPSVFLFPPKPKDTLMISRTPEVTCVVVDVSHEDPEVQFNWYVDGVEVHNAKTKPREEQFNSTFRVVSVLTVVHQDWLNGKEYKCKVSNKGLPAPIEKTISKTKGQPREPQVYTLPPSREEMTKNQVSLTCLVKGFYPSDIAVEWESNGQPENNYKTTPPMLDSDGSFFLYSKLTVDKSRWQQGNVFSCSVMHEALHNHYTQKSLSLSPG
light: DIQMTQSPSSLSASVGDRVTITCRASENIYRNLAWYQQKPGKAPQLLLYAATNLADGVPSRFSGSGSGTDYTLTISSLQPEDFATYYCQHFWGTPWTFGQGTKVEIKRTVAAPSVFIFPPSDEQLKSGTASVVCLLNNFYPREAKVQWKVDNALQSGNSQESVTEQDSKDSTYSLSSTLTLSKADYEKHKVYACEVTHQGLSSPVTKSFNRGEC
notes: human Ig kappa; also called L1-6/HA1
The molecule B1 gave an IC50 in assay [1] of 3 nM. Further, in assay [2], the Kd was found to be 1.5 nM, the koff amounted to 0.00051 s⁻¹ and the kon was 350000 M⁻¹ s⁻¹. The “A450 as % of hEphA4-SEAP-His” value in assay [3] was 5.3%.

B2: humanized antibody No. 90 (antibody, human IgG1, kappa)
heavy: QVQLVQSGSELKKPGASVKVSCKASGYTFTDYSMHWVRQAPGQGLEWMGWINTETGEPTYADDFKGRFVFSLDTSVSTAYLQISSLKAEDTAVYYCARIPLYYYGSRYWYFDVWGQGTTVTVSSASTKGPSVFPLAPSSKSTSGGTAALGCLVKDYFPEPVTVSWNSGALTSGVHTFPAVLQSSGLYSLSSVVTVPSSSLGTQTYICNVNHKPSNTKVDKRVEPKSCDKTHTCPPCPAPPAAAPSVFLFPPKPKDTLMISRTPEVTCVVVDVSHEDPEVQFNWYVDGVEVHNAKTKPREEQFNSTFRVVSVLTVVHQDWLNGKEYKCKVSNKGLPAPIEKTISKTKGQPREPQVYTLPPSREEMTKNQVSLTCLVKGFYPSDIAVEWESNGQPENNYKTTPPMLDSDGSFFLYSKLTVDKSRWQQGNVFSCSVMHEALHNHYTQKSLSLSPG
light: DIQMTQSPSSLSASVGDRVTITCRASENIYRNLAWYQQKPGKAPQLLLYAATNLADGVPSRFSGSGSGTDYTLTISSLQPEDFATYYCQHFWGTPWTFGQGTKVEIKRTVAAPSVFIFPPSDEQLKSGTASVVCLLNNFYPREAKVQWKVDNALQSGNSQESVTEQDSKDSTYSLSSTLTLSKADYEKHKVYACEVTHQGLSSPVTKSFNRGEC
notes: human Ig kappa; also called L1-6/HK1
Consider B2, for which the IC50 in assay [1] was found to be 4.5 nM. In assay [2], this molecule displayed a Kd of 1.5 nM, a koff of 0.00055 s⁻¹ and a kon of 360000 M⁻¹ s⁻¹. Also, the “A450 as % of hEphA4-SEAP-His” value in assay [3] worked out at 4.9%.

B3: humanized antibody No. 89 (antibody, human IgG1, kappa)
heavy: QIQLVQSGSELKKPGASVKVSCKASGYTFTDYSMHWVRQAPGQGLKWMGWINTETGEPTYAQGFTGRFVFSLDTSVSTAYLQISSLKAEDTAVYYCARIPLYYYGSRYWYFDVWGQGTTVTVSSASTKGPSVFPLAPSSKSTSGGTAALGCLVKDYFPEPVTVSWNSGALTSGVHTFPAVLQSSGLYSLSSVVTVPSSSLGTQTYICNVNHKPSNTKVDKRVEPKSCDKTHTCPPCPAPPAAAPSVFLFPPKPKDTLMISRTPEVTCVVVDVSHEDPEVQFNWYVDGVEVHNAKTKPREEQFNSTFRVVSVLTVVHQDWLNGKEYKCKVSNKGLPAPIEKTISKTKGQPREPQVYTLPPSREEMTKNQVSLTCLVKGFYPSDIAVEWESNGQPENNYKTTPPMLDSDGSFFLYSKLTVDKSRWQQGNVFSCSVMHEALHNHYTQKSLSLSPG
light: DIQMTQSPSSLSASVGDRVTITCRASENIYRNLAWYQQKPGKAPQLLLYAATNLADGVPSRFSGSGSGTDYTLTISSLQPEDFATYYCQHFWGTPWTFGQGTKVEIKRTVAAPSVFIFPPSDEQLKSGTASVVCLLNNFYPREAKVQWKVDNALQSGNSQESVTEQDSKDSTYSLSSTLTLSKADYEKHKVYACEVTHQGLSSPVTKSFNRGEC
notes: human Ig kappa; also called L1-6/HA4
On to B3, for which the IC50 in assay [1] is 4.3 nM. In assay [2], this molecule showed a Kd of 1.3 nM, a koff of 0.00041 s⁻¹ and a kon of 310000 M⁻¹ s⁻¹. Further, in assay [3], the “A450 as % of hEphA4-SEAP-His” value came to 5.7%.

B4: humanized antibody No. 88 (antibody, human IgG1, kappa)
heavy: QVQLVQSGSELKKPGASVKVSCKASGYTFTDYSMHWVRQAPGQGLKWMGWINTETGEPTYAQGFTGRFVFSLDTSVSTAYLQISSLKAEDTAVYYCARIPLYYYGSRYWYFDVWGQGTTVTVSSASTKGPSVFPLAPSSKSTSGGTAALGCLVKDYFPEPVTVSWNSGALTSGVHTFPAVLQSSGLYSLSSVVTVPSSSLGTQTYICNVNHKPSNTKVDKRVEPKSCDKTHTCPPCPAPPAAAPSVFLFPPKPKDTLMISRTPEVTCVVVDVSHEDPEVQFNWYVDGVEVHNAKTKPREEQFNSTFRVVSVLTVVHQDWLNGKEYKCKVSNKGLPAPIEKTISKTKGQPREPQVYTLPPSREEMTKNQVSLTCLVKGFYPSDIAVEWESNGQPENNYKTTPPMLDSDGSFFLYSKLTVDKSRWQQGNVFSCSVMHEALHNHYTQKSLSLSPG
light: DIQMTQSPSSLSASVGDRVTITCRASENIYRNLAWYQQKPGKAPQLLLYAATNLADGVPSRFSGSGSGTDYTLTISSLQPEDFATYYCQHFWGTPWTFGQGTKVEIKRTVAAPSVFIFPPSDEQLKSGTASVVCLLNNFYPREAKVQWKVDNALQSGNSQESVTEQDSKDSTYSLSSTLTLSKADYEKHKVYACEVTHQGLSSPVTKSFNRGEC
notes: human Ig kappa; also called L1-6/HA2
As for B4, in assay [1], the IC50 stood at 3.6 nM. In assay [2], this molecule showed a Kd of 1.4 nM, a koff of 0.00042 s⁻¹ and a kon of 300000 M⁻¹ s⁻¹. In assay [3], the “A450 as % of hEphA4-SEAP-His” value came out at 6.1%.
